Assay results taken from PMC4062093, “The structure of a purple acid phosphatase involved in plant growth and pathogen defence exhibits a novel immunoglobulin-like fold” (Iucrj, 2014).

Columns and labels:
[1] = molecular target: PPD1 (diphosphonucleotide phosphatase/phosphodiesterase) (Lupinus luteus, UniProt Q8VX11); conditions: active site, bidentate, bridging Fe and Mn; crystals from acetate pH 5.2 and Morpheus solution pH 6.5
[2] = molecular target: Diphosphonucleotide phosphatase/phosphodiesterase (PPD1) from yellow lupin (Lupinus luteus) seeds (yellow lupin (Lupinus luteus)); test: crystal structure; hanging drop at room temperature, 5 mg/ml PPD1 in 20 mM sodium acetate, 0.5 M NaCl pH 5.2 with Morpheus solution 39 (pH 6.5); asymmetric unit a homotrimer, hexamer generated from crystallographic symmetry; 1.65 Å
[3] = molecular target: Diphosphonucleotide phosphatase/phosphodiesterase (PPD1) from yellow lupin (Lupinus luteus) seeds (yellow lupin (Lupinus luteus)); test: SAXS; PPD1 in solution, 1-4 mg/ml, SWING beamline at SOLEIL; crystallographic hexamer and trimer models fitted with CRYSOL, ab initio shape reconstruction with GASBOR

Chain of PPD1 (diphosphonucleotide phosphatase/phosphodiesterase) (Q8VX11 27-615): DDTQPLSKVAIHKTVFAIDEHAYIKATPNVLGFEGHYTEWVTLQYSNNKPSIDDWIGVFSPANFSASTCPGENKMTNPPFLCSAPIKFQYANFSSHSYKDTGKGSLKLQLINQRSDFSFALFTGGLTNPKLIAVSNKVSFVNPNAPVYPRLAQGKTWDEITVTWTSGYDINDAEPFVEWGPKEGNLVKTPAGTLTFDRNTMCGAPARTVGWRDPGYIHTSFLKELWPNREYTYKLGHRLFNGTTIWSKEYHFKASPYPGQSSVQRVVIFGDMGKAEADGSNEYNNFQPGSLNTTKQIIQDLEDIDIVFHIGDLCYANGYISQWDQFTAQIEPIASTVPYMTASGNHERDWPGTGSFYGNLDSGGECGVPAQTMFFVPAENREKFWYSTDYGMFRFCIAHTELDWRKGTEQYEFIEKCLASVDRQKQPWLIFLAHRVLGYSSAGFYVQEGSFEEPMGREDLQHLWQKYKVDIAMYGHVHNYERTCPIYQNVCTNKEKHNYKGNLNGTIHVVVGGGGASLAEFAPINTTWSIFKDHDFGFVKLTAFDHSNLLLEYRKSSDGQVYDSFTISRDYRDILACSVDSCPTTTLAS

Row | Molecule | X-ray crystal structure, 1.65 A [1] | stoichiometry N [2] | stoichiometry N [3]
1 | O=P(O)(O)O [phosphate] | active site of PPD1 with a phosphate ion bound to both of the metal atoms |  | 
2 | Diphosphonucleotide phosphatase/phosphodiesterase (PPD1) from yellow lupin (Lupinus luteus) seeds (enzyme) |  | 6 | 6
